Reference: article PMC10816834, “Role of the C-Terminal β Sandwich of Thermoanaerobacter tengcongensis Thermophilic Esterase in Hydrolysis of Long-Chain Acyl Substrates” (International Journal of Molecular Sciences, 2024)
Values belong to the molecule of their own block, whether it stands above or below them.

Columns and labels:
Conditions in all cases: 50 °C, 50 mM sodium phosphate pH 7.4 (also Tris-HCl pH 8.5), 5 μM enzyme, 1-20 mM substrate
[1] = test system: T1, EstA3_Bb (naturally shorter B. brevis esterase); experiment: p-nitrophenol release at […] nm, Lineweaver-Burk; format: biochemical, Brevibacillus brevis
T1 construct: gene EstA3.bb; full-length natural enzyme lacking the C-terminal tail, 6xHis-tag (pET28a, plasmid pFEM170), codon-optimised synthetic gene, E. coli BL21(DE3) pLysS, Ni-NTA; calculated mass 35,243

purified protein [2] = substrate: CCCCCCCC(=O)Oc1ccc([N+](=O)[O-])cc1; experiment: purified protein; format: biochemical, Caldanaerobacter subterraneus
purified protein [3] = substrate: CCCC(=O)Oc1ccc([N+](=O)[O-])cc1; experiment: purified protein; format: biochemical, Caldanaerobacter subterraneus

Km [1]: 510 µM
Molecule: CCCCCCCC(=O)Oc1ccc([N+](=O)[O-])cc1 [pNPC8, p-nitrophenyl caprylate]

Km ([1]; table value, text b31 prints 0.53 mM): 590 µM
Molecule: CCCC(=O)Oc1ccc([N+](=O)[O-])cc1 [pNPC4, p-nitrophenyl butyrate]

B1: EstA3_TtΔ (truncated T. tengcongensis esterase) (Caldanaerobacter subterraneus subsp. tengcongensis MB4) (protein)
chain: MNNPVVFLHGIFGSIFTPTPLGKIWSFGPAANIYAPFIEDLQKIGLVENKNLFVCYYEWWRKIPDAVDKLILAIEEAKAKTGSSKVDLVCHSMGGLLARSYLQSDKYQFDVDKLILLGTPNLGAANAYYGWEGGTVPPDDEDFVNMLFRGFLWIFSKIKGEKDAVTVIRKYIPSIKDLMPSKEYGSYLFMYPVRYEKILFKNIEYMKVINDFLNDLNEKADILYERVRSVYLFAGEGVYTNKFIQVEKSESEVVWPDGKPVGVIRDDKGDGTVLTKSALGINGEEIVLKSSHIGILKDSVSYLGEILG
notes: catalytic domain; 6xHis-tag (pET28a, plasmid pFEM103), E. coli BL21(DE3) pLysS, Ni-NTA; calculated mass 34,719
Km (purified protein [2]): 560 µM
Km (purified protein [3]): 640 µM

B2: EstA3_Tt (wild-type T. tengcongensis esterase EstA3, LipA3) (Caldanaerobacter subterraneus subsp. tengcongensis MB4) (protein)
chain: MNNPVVFLHGIFGSIFTPTPLGKIWSFGPAANIYAPFIEDLQKIGLVENKNLFVCYYEWWRKIPDAVDKLILAIEEAKAKTGSSKVDLVCHSMGGLLARSYLQSDKYQFDVDKLILLGTPNLGAANAYYGWEGGTVPPDDEDFVNMLFRGFLWIFSKIKGEKDAVTVIRKYIPSIKDLMPSKEYGSYLFMYPVRYEKILFKNIEYMKVINDFLNDLNEKADILYERVRSVYLFAGEGVYTNKFIQVEKSESEVVWPDGKPVGVIRDDKGDGTVLTKSALGINGEEIVLKSSHIGILKDSVSYLGEILGIREKPSISLLEKAISYLSIITDKKIVVLDRSKKIKTYDVFGKYNWHVCFEPEGVYKISIKEPGMSEFYIETNKKTVEKKFKSSRLSRGAEFTLEVDEEGNFKMRDG
notes: full length, 6xHis-tag (pET28a, plasmid pFEM45), codon-optimised synthetic gene, E. coli BL21(DE3) pLysS, Ni-NTA; calculated mass 47,078
Km (purified protein [2]; listed as label shifted in table, assigned by text b31): 490 µM
Km (purified protein [3]): 530 µM
